Experimental data published in US9637543B2, “HER3 antibodies and uses thereof” (THE UAB RESEARCH FOUNDATION, priority 2011, dated 2017).
“Also recorded” adds a separate entry of the source. One block for each molecule: values may come before it.

Assays:
[1] = target: T1, HER3 (Homo sapiens, UniProt P21860); test: HER3 autophosphorylation in pancreatic cancer cell lines; type: cell-based; design: endogenous in cells; host or cells: N87, BT474, ZR75-30, Panc 2.03, A549 and a panel of human cancer cell lines; details: single agents
T1 sequence (P21860 20-1342): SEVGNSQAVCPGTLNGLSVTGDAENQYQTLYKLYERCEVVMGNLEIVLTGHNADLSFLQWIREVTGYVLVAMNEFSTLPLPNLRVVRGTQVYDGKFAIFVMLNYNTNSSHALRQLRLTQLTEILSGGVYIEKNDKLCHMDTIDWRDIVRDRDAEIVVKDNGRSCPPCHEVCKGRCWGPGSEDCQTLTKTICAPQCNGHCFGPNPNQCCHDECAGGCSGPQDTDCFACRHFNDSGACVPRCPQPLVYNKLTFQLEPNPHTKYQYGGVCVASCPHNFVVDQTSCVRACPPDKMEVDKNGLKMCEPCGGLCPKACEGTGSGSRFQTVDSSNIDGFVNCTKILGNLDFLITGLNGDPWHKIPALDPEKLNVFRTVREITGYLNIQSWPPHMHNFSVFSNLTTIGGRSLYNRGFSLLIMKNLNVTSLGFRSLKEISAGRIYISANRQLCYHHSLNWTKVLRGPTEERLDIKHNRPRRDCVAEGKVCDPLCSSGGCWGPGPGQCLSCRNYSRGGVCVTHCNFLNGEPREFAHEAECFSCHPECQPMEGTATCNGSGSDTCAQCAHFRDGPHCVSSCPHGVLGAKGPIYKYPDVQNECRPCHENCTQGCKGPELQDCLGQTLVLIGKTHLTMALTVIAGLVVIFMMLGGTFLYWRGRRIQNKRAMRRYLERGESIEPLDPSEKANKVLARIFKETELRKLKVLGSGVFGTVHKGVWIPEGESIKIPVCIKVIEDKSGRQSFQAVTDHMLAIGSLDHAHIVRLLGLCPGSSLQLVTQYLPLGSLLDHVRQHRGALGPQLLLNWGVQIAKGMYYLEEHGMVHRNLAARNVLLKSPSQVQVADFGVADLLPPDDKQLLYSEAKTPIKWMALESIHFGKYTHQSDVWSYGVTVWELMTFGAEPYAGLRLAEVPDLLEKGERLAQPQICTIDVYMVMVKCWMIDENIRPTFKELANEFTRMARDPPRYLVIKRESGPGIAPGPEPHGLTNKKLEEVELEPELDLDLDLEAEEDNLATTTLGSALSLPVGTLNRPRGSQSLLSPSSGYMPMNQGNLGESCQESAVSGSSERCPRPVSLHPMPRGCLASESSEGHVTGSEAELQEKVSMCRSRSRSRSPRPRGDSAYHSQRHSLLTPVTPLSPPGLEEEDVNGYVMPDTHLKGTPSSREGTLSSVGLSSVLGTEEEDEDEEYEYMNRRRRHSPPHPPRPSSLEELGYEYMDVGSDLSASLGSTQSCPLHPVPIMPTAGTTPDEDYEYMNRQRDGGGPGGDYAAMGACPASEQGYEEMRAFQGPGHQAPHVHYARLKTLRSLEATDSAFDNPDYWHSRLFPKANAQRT

[2] = target: T1, HER3; test: NRG1-induced phosphorylation of HER3 in pancreatic cancer cell lines; type: cell-based; design: endogenous in cells; host or cells: N87, BT474, ZR75-30, Panc 2.03, A549 and a panel of human cancer cell lines
[3] = target: T2, HER2 (Homo sapiens, UniProt P04626); test: HER2 autophosphorylation in pancreatic cancer cell lines; type: cell-based; design: endogenous in cells; details: single agents
[4] = target: T2, HER2; test: HER2 tyrosine phosphorylation ELISA, antibodies with or without lapatinib; type: cell-based; design: endogenous in cells; host or cells: N87 gastric cancer cells; ZR75-30 breast cancer cells; details: 24 hours; for tyrosine phosphorylation level of HER2: N87 cells; for tyrosine phosphorylation levels of HER2: ZR75-30 cells
[5] = system: N87 human gastric cancer xenograft; test: N87 human gastric cancer xenograft model; type: in vivo; details: lapatinib alone versus antibodies alone
[6] = target: T2, HER2; test: NRG1-induced phosphorylation of HER2 in pancreatic cancer cell lines; type: cell-based; design: endogenous in cells
[7] = system: A549 human lung cancer xenograft; test: A549 human lung cancer xenograft model; type: in vivo
[8] = target: T3, HER3-transfected SP 2/0 cells (Homo sapiens, UniProt P21860); test: Flow cytometry for blocking of NRG1 binding to HER3; details: 100 ng/ml biotin-conjugated NRG1, increasing antibody concentrations
T3 construct: expressed in transfected cells; host or cells: SP 2/0 cells
T3 sequence (P21860 20-1342): as above
From the text: (§1) The binding of NRG1 to HER3 (vertical axis) was detected by HRP-streptavidin. […] NRG1 binding was detected by PE-streptavidin. The mean fluorescent intensities (MFI) of NRG1 bound are presented.
(§2) The binding of NRG1 to HER3 was detected by HRP-streptavidin. […] Thus, the 1A5 antibody is herein referred to as a ligand-independent antibody. […] Thus, the 3D4 antibody is herein referred to as a ligand-dependent antibody. […] NRG1 binding was detected by PE-streptavidin.

[9] = target: EGFR (Homo sapiens, UniProt P00533); test: EGFR tyrosine phosphorylation ELISA, antibodies with or without tyrosine kinase inhibitor; details: 24 hours
[10] = target: T4, recombinant soluble HER3 (Homo sapiens, UniProt P21860); test: Sandwich ELISA for epitopes (1A5 capture, HRP-3D4 detection); type: binding; details: plate coated with 2 μg/ml 1A5, 200 ng/ml HRP-conjugated 3D4
T4 construct: coated with 1 μg/ml of recombinant soluble HER3
T4 sequence (P21860 20-643 limits assumed): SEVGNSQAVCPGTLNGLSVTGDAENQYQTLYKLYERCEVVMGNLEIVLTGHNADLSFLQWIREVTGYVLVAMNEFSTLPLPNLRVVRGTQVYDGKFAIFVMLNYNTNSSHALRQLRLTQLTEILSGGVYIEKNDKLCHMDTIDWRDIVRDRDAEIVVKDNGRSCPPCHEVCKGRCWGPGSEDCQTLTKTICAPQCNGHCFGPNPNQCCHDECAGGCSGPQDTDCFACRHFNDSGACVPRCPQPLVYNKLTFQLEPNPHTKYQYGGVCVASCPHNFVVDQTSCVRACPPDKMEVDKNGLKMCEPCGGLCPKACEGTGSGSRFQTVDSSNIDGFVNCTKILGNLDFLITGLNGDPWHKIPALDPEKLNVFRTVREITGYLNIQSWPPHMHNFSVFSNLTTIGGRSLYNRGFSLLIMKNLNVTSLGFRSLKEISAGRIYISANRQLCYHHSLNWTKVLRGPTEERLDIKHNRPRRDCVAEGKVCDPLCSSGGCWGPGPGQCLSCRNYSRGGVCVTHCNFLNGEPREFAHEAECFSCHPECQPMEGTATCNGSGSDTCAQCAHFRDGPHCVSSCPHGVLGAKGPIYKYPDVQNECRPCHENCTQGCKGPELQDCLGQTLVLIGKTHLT
Procedure: An ELISA plate was coated with 2 μg/ml of purified 1A5 and then incubated with indicated concentrations of recombinant soluble HER3 in the presence of 200 ng/ml HRP-conjugated 3D4. The binding of 3D4 to HER3 was detected by chemiluminescence substrate. The average counts per second of triplicates are presented.
An ELISA plate was coated with 2 μg/ml of purified 1A5 and then incubated with increasing concentrations of HER3 in the presence of 200 ng/ml HRP-conjugated 3D4. The binding of 3D4 antibody to HER3 was detected by chemiluminescence.

[11] = target: T4, recombinant soluble HER3; test: ELISA for blocking of NRG1 binding to HER3; details: 100 ng/ml biotin-conjugated NRG1, increasing antibody concentrations
From the text: as §1, §2

[12] = target: T1, HER3; test: Functional screen for inhibition of ligand-induced HER3 activation; type: cell-based; design: endogenous in cells; host or cells: N87, BT474, ZR75-30, Panc 2.03, A549 and a panel of human cancer cell lines; details: human cancer cell lines
From the text: Another HER3 antibody was generated by immunizing mice with human HER3 expressing SP 2/0 cells. […] Thus, the 3D4 antibody is a ligand-dependent antibody.

[13] = target: T5, HER3 (extracellular domain) (Homo sapiens, UniProt P21860); test: ELISA binding specificity on recombinant soluble EGFR, HER2, HER3; details: plate coated with 1 μg/ml recombinant soluble EGFR, HER2 or HER3 extracellular domain
T5 construct: recombinant soluble EGFR, HER2, or the extracellular domain of HER3
T5 sequence (P21860 20-643 limits assumed): as above
Procedure: (§3) The average OD values of triplicates are presented. The values for egFR are superimposed on the values for HER2. […] EGFR, HER2 or HER3-transfected SP 2/0 cells were stained with 1 μg/ml of purified antibody, followed by PE-goat anti-mouse IgG.
(§4) An ELISA plate was coated with 1 μg/ml of recombinant soluble EGFR, HER2, or the extracellular domain of HER3.

[14] = target: T1, HER3; test: HER3 tyrosine phosphorylation ELISA, antibodies with or without tyrosine kinase inhibitor; type: cell-based; design: endogenous in cells; host or cells: N87; tyrosine phosphorylation of HER3: dose or concentration left out as unconfirmed; details: 24 hours; for tyrosine phosphorylation levels of HER3: 20 μg/ml antibody
[15] = target: T3, HER3-transfected SP 2/0 cells; test: Flow cytometry binding specificity on transfected SP 2/0 cells; details: EGFR, HER2 or HER3 transfected SP2/0 cells, 1 μg/ml purified antibody
Procedure: as §3, §4

Molecule: C#Cc1cccc(Nc2ncnc3cc(OCCOC)c(OCCOC)cc23)c1 [erlotinib, reference compound]
autophosphorylation of HER3 [1]: but not erlotinib and lapatinib inhibited autophosphorylation of HER3

tyrosine phosphorylation level of HER2 ([4]; 100 nM lapatinib with the antibodies): reduced
tyrosine phosphorylation levels of HER2 ([4]; 100 nM lapatinib with the antibodies alone or in combination): reduced tyrosine phosphorylation levels
Molecule: CS(=O)(=O)CCNCc1ccc(-c2ccc3ncnc(Nc4ccc(OCc5cccc(F)c5)c(Cl)c4)c3c2)o1 [lapatinib, reference compound]
autophosphorylation of HER3 [1]: but not erlotinib and lapatinib inhibited autophosphorylation of HER3
NRG1-induced phosphorylation of HER3 [2]: only partially inhibited NRG1-induced phosphorylation of HER3; also recorded: partially reduced NRG-1-induced phosphorylation
autophosphorylation of HER2 [3]: partially inhibited autophosphorylation of HER2
tumor volume [5]: reduced tumor volume more than the administration of the combination of 1A5 and 3D4 antibodies
NRG1-induced phosphorylation of HER2 [6]: inhibited NRG1-induced phosphorylation of HER2; also recorded: inhibited NRG-1-induced phosphorylation of HER2

tyrosine phosphorylation levels of HER3, effect of adding Erlotinib ([14]; A549 cells, 20 μg/ml antibody with 100 nM Erlotinib): enhanced
tyrosine phosphorylation of HER3, effect of adding lapatinib ([14]; N87 cells, with 100 nM lapatinib): enhanced
tyrosine phosphorylation levels of HER3, effect of adding lapatinib ([14]; ZR75-30 cells, 20 μg/ml antibody with 100 nM lapatinib): enhanced
binding specificity by flow cytometry [15]: specifically bind HER3
B1: 3D4: ligand-dependent HER3 antibody; light chain variable region SEQ ID NO:9, heavy chain variable region SEQ ID NO:10 (antibody, V domains shown)
VH: MGWSRIFLFLLSIIAGVHCQVQLQQSGPELVKPGASVRISCKASGYTFTNYFLHWMKQRPGQGLEWIGWIYPGNVNTKYSEKFKGKATLTADKSSSTAYMQLSSLTSEDSAVYFCARSTYYSMDYWGQGTSVTVSS
VL: METDTLLLWVLLLWVPGSTGDIVLTQSPASLAVSLGQRATISCRASESVDSYGNSFMNWYQQKPGQPPKVLIYRASNLESGIPARFSGSGSRTDFTLTITPVEADDVATYYCQQSYEDPPTFGGGTKLEIK
tumor volume ([7]; antibodies without Erbitux): reduced tumor volume
tumor volume ([7]; in combination with Erbitux): reduced tumor volume more than administration of Erbitux alone
blocking of NRG1 binding to HER3 (flow cytometry) [8]: blocked NRG1 binding to HER3; also recorded: blocks ligand binding to HER2
tyrosine phosphorylation levels of EGFR ([9]; A549 cells, 20 μg/ml antibody, without Erlotinib): did not affect tyrosine phosphorylation levels of EGFR
tyrosine phosphorylation level of EGFR ([9]; N87 cells, 20 mg/ml antibody, without lapatinib): did not affect the level of tyrosine phosphorylation for EGFR or HER2
epitopes of HER3 bound [10]: bind different epitopes of HER3; also recorded: recognize different epitopes on HER3
NRG1-induced phosphorylation of HER3 [2]: inhibited NRG1-induced phosphorylation of HER3; also recorded: inhibited NRG-1 induced phosphorylation of HER3
blocking of NRG1 binding to HER3 (ELISA) [11]: inhibited binding of NRG1 to HER3; also recorded: blocks ligand binding to HER3
inhibition of ligand-induced HER3 activation [12]: ability to inhibit ligand-induced HER3 activation in human cancer cells lines
binding specificity by ELISA [13]: specifically bind HER3; also recorded: specific binding
tyrosine phosphorylation level of HER2 ([4]; without lapatinib): did not affect the level of tyrosine phosphorylation for EGFR or HER2
tyrosine phosphorylation levels of HER2 ([4]; 20 μg/ml antibody, without lapatinib): did not affect tyrosine phosphorylation levels of HER2
NRG1-induced phosphorylation of HER2 [6]: inhibited NRG1-induced phosphorylation of HER2; also recorded: inhibited NRG-1-induced phosphorylation of HER2
tyrosine phosphorylation levels of HER3 ([14]; A549 cells, without Erlotinib): reduced the tyrosine-phosphorylation levels of HER3
tyrosine phosphorylation of HER3 ([14]; N87 cells, without lapatinib): reduced the tyrosine phosphorylation of HER3
tyrosine phosphorylation levels of HER3 ([14]; ZR75-30 cells, without lapatinib): reduced the tyrosine phosphorylation levels of HER3
